The data set “native gel or EMSA” concerns the molecule itself. As to the kind of experiment: native gel or EMSA.
Another data set deals with T1, human SEPT6 (human, UniProt Q14141-2 1-427).
T1 sequence: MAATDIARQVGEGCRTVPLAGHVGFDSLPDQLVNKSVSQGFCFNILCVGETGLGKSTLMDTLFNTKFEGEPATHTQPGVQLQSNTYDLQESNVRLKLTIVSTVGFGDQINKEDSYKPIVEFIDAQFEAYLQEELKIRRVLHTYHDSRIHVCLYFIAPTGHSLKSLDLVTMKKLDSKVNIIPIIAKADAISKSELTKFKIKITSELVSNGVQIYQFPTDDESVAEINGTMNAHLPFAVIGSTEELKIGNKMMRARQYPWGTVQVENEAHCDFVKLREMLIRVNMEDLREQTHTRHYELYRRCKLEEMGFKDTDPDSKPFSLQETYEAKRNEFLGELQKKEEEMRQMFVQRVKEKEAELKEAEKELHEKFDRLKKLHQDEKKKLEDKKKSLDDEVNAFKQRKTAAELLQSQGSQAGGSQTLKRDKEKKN
Kind of data set: two-tag affinity co-purification of co-expressed proteins.

Data set [1] deals with the molecule itself. Kind of data set: negative-stain electron microscopy of septin polymerisation.
Data set [2] deals with the molecule itself. Kind of data set: spinning disk fluorescence microscopy of septin polymerisation.

B1: human SEPT9_i3 with a TEV-cleavable C-terminal Strep-tag-II (natural protein)
chain: MERDRISALKRSFEVEEVETPNSTPPRRVQTPLLRATVASSTQKFQDLGVKNSEPSARHVDSLSQRSPKASLRRVELSGPKAAEPVSRRTELSIDISSKQVENAGAIGPSRFGLKRAEVLGHKTPEPAPRRTEITIVKPQESAHRRMEPPASKVPEVPTAPATDAAPKRVEIQMPKPAEAPTAPSPAQTLENSEPAPVSQLQSRLEPKPQPPVAEATPRSQEATEAAPSCVGDMADTPRDAGLKQAPASRNEKAPVDFGYVGIDSILEQMRRKAMKQGFEFNIMVVGQSGLGKSTLINTLFKSKISRKSVQPTSEERIPKTIEIKSITHDIEEKGVRMKLTVIDTPGFGDHINNENCWQPIMKFINDQYEKYLQEEVNINRKKRIPDTRVHCCLYFIPATGHSLRPLDIEFMKRLSKVVNIVPVIAKADTLTLEERVHFKQRITADLLSNGIDVYPQKEFDEDSEDRLVNEKFREMIPFAVVGSDHEYQVNGKRILGRKTKWGTIEVENTTHCEFAYLRDLLIRTHMQNIKDITSSIHFEAYRVKRLNEGSSAMANGVEEKEPEAPEM
Turning to B1, in the data set “native gel or EMSA”, the binding result is given as “binds”.

B2: human SEPT2 with a TEV-cleavable N-terminal His6-tag (natural protein)
chain: MSKQQPTQFINPETPGYVGFANLPNQVHRKSVKKGFEFTLMVVGESGLGKSTLINSLFLTDLYPERVIPGAAEKIERTVQIEASTVEIEERGVKLRLTVVDTPGYGDAINCRDCFKTIISYIDEQFERYLHDESGLNRRHIIDNRVHCCFYFISPFGHGLKPLDVAFMKAIHNKVNIVPVIAKADTLTLKERERLKKRILDEIEEHNIKIYHLPDAESDEDEDFKEQTRLLKASIPFSVVGSNQLIEAKGKKVRGRLYPWGVVEVENPEHNDFLKLRTMLITHMQDLQEVTQDLHYENFRSERLKRGGRKVENEDMNKDQILLEKEAELRRMQEMIARMQAQMQMQMQGGDGDGGALGHHV
In the case of B2, the binding result with human SEPT6 is “binds”.

B3: SEPT2-msfGFP human septin octamers containing SEPT9_i1 (complex)
chain 1: MSKQQPTQFINPETPGYVGFANLPNQVHRKSVKKGFEFTLMVVGESGLGKSTLINSLFLTDLYPERVIPGAAEKIERTVQIEASTVEIEERGVKLRLTVVDTPGYGDAINCRDCFKTIISYIDEQFERYLHDESGLNRRHIIDNRVHCCFYFISPFGHGLKPLDVAFMKAIHNKVNIVPVIAKADTLTLKERERLKKRILDEIEEHNIKIYHLPDAESDEDEDFKEQTRLLKASIPFSVVGSNQLIEAKGKKVRGRLYPWGVVEVENPEHNDFLKLRTMLITHMQDLQEVTQDLHYENFRSERLKRGGRKVENEDMNKDQILLEKEAELRRMQEMIARMQAQMQMQMQGGDGDGGALGHHV
chain 2: MAATDIARQVGEGCRTVPLAGHVGFDSLPDQLVNKSVSQGFCFNILCVGETGLGKSTLMDTLFNTKFEGEPATHTQPGVQLQSNTYDLQESNVRLKLTIVSTVGFGDQINKEDSYKPIVEFIDAQFEAYLQEELKIRRVLHTYHDSRIHVCLYFIAPTGHSLKSLDLVTMKKLDSKVNIIPIIAKADAISKSELTKFKIKITSELVSNGVQIYQFPTDDESVAEINGTMNAHLPFAVIGSTEELKIGNKMMRARQYPWGTVQVENEAHCDFVKLREMLIRVNMEDLREQTHTRHYELYRRCKLEEMGFKDTDPDSKPFSLQETYEAKRNEFLGELQKKEEEMRQMFVQRVKEKEAELKEAEKELHEKFDRLKKLHQDEKKKLEDKKKSLDDEVNAFKQRKTAAELLQSQGSQAGGSQTLKRDKEKKN
chain 3: MSVSARSAAAEERSVNSSTMVAQQKNLEGYVGFANLPNQVYRKSVKRGFEFTLMVVGESGLGKSTLINSLFLTDLYSPEYPGPSHRIKKTVQVEQSKVLIKEGGVQLLLTIVDTPGFGDAVDNSNCWQPVIDYIDSKFEDYLNAESRVNRRQMPDNRVQCCLYFIAPSGHGLKPLDIEFMKRLHEKVNIIPLIAKADTLTPEECQQFKKQIMKEIQEHKIKIYEFPETDDEEENKLVKKIKDRLPLAVVGSNTIIEVNGKRVRGRQYPWGVAEVENGEHCDFTILRNMLIRTHMQDLKDVTNNVHYENYRSRKLAAVTYNGVDNNKNKGQLTKSPLAQMEEERREHVAKMKKMEMEMEQVFEMKVKEKVQKLKDSEAELQRRHEQMKKNLEAQHKELEEKRRQFEDEKANWEAQQRILEQQNSSRTLEKNKKKGKIF
chain 4: MKKSYSGGTRTSSGRLRRLGDSSGPALKRSFEVEEVETPNSTPPRRVQTPLLRATVASSTQKFQDLGVKNSEPSARHVDSLSQRSPKASLRRVELSGPKAAEPVSRRTELSIDISSKQVENAGAIGPSRFGLKRAEVLGHKTPEPAPRRTEITIVKPQESAHRRMEPPASKVPEVPTAPATDAAPKRVEIQMPKPAEAPTAPSPAQTLENSEPAPVSQLQSRLEPKPQPPVAEATPRSQEATEAAPSCVGDMADTPRDAGLKQAPASRNEKAPVDFGYVGIDSILEQMRRKAMKQGFEFNIMVVGQSGLGKSTLINTLFKSKISRKSVQPTSEERIPKTIEIKSITHDIEEKGVRMKLTVIDTPGFGDHINNENCWQPIMKFINDQYEKYLQEEVNINRKKRIPDTRVHCCLYFIPATGHSLRPLDIEFMKRLSKVVNIVPVIAKADTLTLEERVHFKQRITADLLSNGIDVYPQKEFDEDSEDRLVNEKFREMIPFAVVGSDHEYQVNGKRILGRKTKWGTIEVENTTHCEFAYLRDLLIRTHMQNIKDITSSIHFEAYRVKRLNEGSSAMANGVEEKEPEAPEM
As for B3, the binding result in data set [1] and in data set [2] was “binds” each time.

B4: SEPT2-msfGFP human septin hexamers (complex)
chain 1: MSKQQPTQFINPETPGYVGFANLPNQVHRKSVKKGFEFTLMVVGESGLGKSTLINSLFLTDLYPERVIPGAAEKIERTVQIEASTVEIEERGVKLRLTVVDTPGYGDAINCRDCFKTIISYIDEQFERYLHDESGLNRRHIIDNRVHCCFYFISPFGHGLKPLDVAFMKAIHNKVNIVPVIAKADTLTLKERERLKKRILDEIEEHNIKIYHLPDAESDEDEDFKEQTRLLKASIPFSVVGSNQLIEAKGKKVRGRLYPWGVVEVENPEHNDFLKLRTMLITHMQDLQEVTQDLHYENFRSERLKRGGRKVENEDMNKDQILLEKEAELRRMQEMIARMQAQMQMQMQGGDGDGGALGHHV
chain 2: MAATDIARQVGEGCRTVPLAGHVGFDSLPDQLVNKSVSQGFCFNILCVGETGLGKSTLMDTLFNTKFEGEPATHTQPGVQLQSNTYDLQESNVRLKLTIVSTVGFGDQINKEDSYKPIVEFIDAQFEAYLQEELKIRRVLHTYHDSRIHVCLYFIAPTGHSLKSLDLVTMKKLDSKVNIIPIIAKADAISKSELTKFKIKITSELVSNGVQIYQFPTDDESVAEINGTMNAHLPFAVIGSTEELKIGNKMMRARQYPWGTVQVENEAHCDFVKLREMLIRVNMEDLREQTHTRHYELYRRCKLEEMGFKDTDPDSKPFSLQETYEAKRNEFLGELQKKEEEMRQMFVQRVKEKEAELKEAEKELHEKFDRLKKLHQDEKKKLEDKKKSLDDEVNAFKQRKTAAELLQSQGSQAGGSQTLKRDKEKKN
chain 3: MSVSARSAAAEERSVNSSTMVAQQKNLEGYVGFANLPNQVYRKSVKRGFEFTLMVVGESGLGKSTLINSLFLTDLYSPEYPGPSHRIKKTVQVEQSKVLIKEGGVQLLLTIVDTPGFGDAVDNSNCWQPVIDYIDSKFEDYLNAESRVNRRQMPDNRVQCCLYFIAPSGHGLKPLDIEFMKRLHEKVNIIPLIAKADTLTPEECQQFKKQIMKEIQEHKIKIYEFPETDDEEENKLVKKIKDRLPLAVVGSNTIIEVNGKRVRGRQYPWGVAEVENGEHCDFTILRNMLIRTHMQDLKDVTNNVHYENYRSRKLAAVTYNGVDNNKNKGQLTKSPLAQMEEERREHVAKMKKMEMEMEQVFEMKVKEKVQKLKDSEAELQRRHEQMKKNLEAQHKELEEKRRQFEDEKANWEAQQRILEQQNSSRTLEKNKKKGKIF
Consider B4, for which the binding result in data set [1] and in data set [2] was “binds” throughout.

B5: human SEPT9_i1 with a TEV-cleavable C-terminal Strep-tag-II (natural protein)
chain: MKKSYSGGTRTSSGRLRRLGDSSGPALKRSFEVEEVETPNSTPPRRVQTPLLRATVASSTQKFQDLGVKNSEPSARHVDSLSQRSPKASLRRVELSGPKAAEPVSRRTELSIDISSKQVENAGAIGPSRFGLKRAEVLGHKTPEPAPRRTEITIVKPQESAHRRMEPPASKVPEVPTAPATDAAPKRVEIQMPKPAEAPTAPSPAQTLENSEPAPVSQLQSRLEPKPQPPVAEATPRSQEATEAAPSCVGDMADTPRDAGLKQAPASRNEKAPVDFGYVGIDSILEQMRRKAMKQGFEFNIMVVGQSGLGKSTLINTLFKSKISRKSVQPTSEERIPKTIEIKSITHDIEEKGVRMKLTVIDTPGFGDHINNENCWQPIMKFINDQYEKYLQEEVNINRKKRIPDTRVHCCLYFIPATGHSLRPLDIEFMKRLSKVVNIVPVIAKADTLTLEERVHFKQRITADLLSNGIDVYPQKEFDEDSEDRLVNEKFREMIPFAVVGSDHEYQVNGKRILGRKTKWGTIEVENTTHCEFAYLRDLLIRTHMQNIKDITSSIHFEAYRVKRLNEGSSAMANGVEEKEPEAPEM
As to B5, in the data set “native gel or EMSA”, the binding result is “binds”.

The record behind these values is paper doi:10.1101/2021.01.21.427698 (bioRxiv, 2021).
